Data: publication PMC6952535

Target: 6xHis-hSTAT3_(136-705) (human) (UniProt P40763)
Test: ITC

Sequence of UniProt P40763 (P40763 136-705): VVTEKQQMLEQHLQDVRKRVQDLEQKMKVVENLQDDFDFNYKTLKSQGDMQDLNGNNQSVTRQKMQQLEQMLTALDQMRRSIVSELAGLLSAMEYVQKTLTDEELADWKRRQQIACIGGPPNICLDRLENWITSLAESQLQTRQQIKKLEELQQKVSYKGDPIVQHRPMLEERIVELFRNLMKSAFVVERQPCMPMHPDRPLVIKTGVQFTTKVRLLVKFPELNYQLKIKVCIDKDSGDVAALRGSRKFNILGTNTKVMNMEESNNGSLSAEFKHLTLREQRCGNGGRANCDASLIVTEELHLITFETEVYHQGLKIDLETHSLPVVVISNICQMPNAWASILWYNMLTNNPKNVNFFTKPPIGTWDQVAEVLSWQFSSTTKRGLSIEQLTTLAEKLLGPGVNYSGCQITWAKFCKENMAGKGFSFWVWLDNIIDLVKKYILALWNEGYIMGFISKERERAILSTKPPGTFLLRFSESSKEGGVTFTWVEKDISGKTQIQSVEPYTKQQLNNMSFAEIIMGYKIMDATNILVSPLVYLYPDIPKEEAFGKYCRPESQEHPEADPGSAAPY

Row | Substance | Kd
1 | gp130 phosphopeptide containing YxxQ (phosphorylated at Y767) | 2290 nM
2 | SarA phospho-peptide (ten residues spanning the YxxQ motif, phosphorylated at Y167) | 143 nM
